# Reference: PMC3596498
# Target: SciP (Caulobacter crescentus)
binder,measurement,value
C. crescentus Lon (enzyme) MSELRTLPVLPLRDIVVFPHMVVPLFVGRDKSVRALEEVMRGDKQILLVTQKNSADDDPAPGDIFEVGVLATVLQLLKLPDGTVKVLVEGKARAAVVSFTDQESYYEAQIGEVSEDDGAGPEAEALSRAVVEQFENYVKLNKKVPPEALASIPQIAEPGKLADSIAAHLSVKIGDKQNLLEIFDVVKRLEKVFALMEGEISVLQVEKKIRSRVKRQMEKTQREYYLNEQMKAIQRELGDPDDARDELIDLEKRIKKTKLSKEARTKAESELKKLRNMSPMSAESTVVRNYLDWLLSIPWGKAKTKKIDLVESEGILDADHYGLEKVKERILEYLAVQARTNSLKGPILCLVGPPGVGKTSLGKSIAKATGREFVRMSLGGVRDEAEIRGHRRTYIGSMPGKVVQSMKKAKTTNAFVLLDEIDKMGSDYRGDPASALLEVLDPSQNSTFGDHYLEVDYDLSQVMFVTTANSLNMPQPLLDRMEIIRIPGYTEDEKLEIAKRHILPKLAKDHGLKPAEFIVPDKAIRDLIRYYTREAGVRSLERELGALARKTVRDLAREKVASITIDDERLAKYAGVKKYRYGETDEVDQVGIVTGLAWTEFGGDILTIEAVKMPGKGRMQITGNLKDVMKESIAAANSYVRSRALQFGIKPPVFEKTDVHIHVPDGATPKDGPSAGIAMALAMVSVLTGIPIRKDIAMTGEITLRGRVTAIGGLKEKLLAALRSGVKTVLIPQENEKDLADVPQTVKDGLEIIPVSTVDEVLKHALTGPLTPVEWNEAEEPITTSAKKDDGDSDAMLTH,half-life of purified SciP (0.5 µM) degraded by purified Lon (0.5 µM) in vitro,12 min
